Experimental findings from patent US20190099470 are described below.

This data set concerns the target T1, Mouse MAVS, endogenous, on mitochondria of wild-type MEFs and BMDCs (UniProt Q8VCF0).
T1 sequence: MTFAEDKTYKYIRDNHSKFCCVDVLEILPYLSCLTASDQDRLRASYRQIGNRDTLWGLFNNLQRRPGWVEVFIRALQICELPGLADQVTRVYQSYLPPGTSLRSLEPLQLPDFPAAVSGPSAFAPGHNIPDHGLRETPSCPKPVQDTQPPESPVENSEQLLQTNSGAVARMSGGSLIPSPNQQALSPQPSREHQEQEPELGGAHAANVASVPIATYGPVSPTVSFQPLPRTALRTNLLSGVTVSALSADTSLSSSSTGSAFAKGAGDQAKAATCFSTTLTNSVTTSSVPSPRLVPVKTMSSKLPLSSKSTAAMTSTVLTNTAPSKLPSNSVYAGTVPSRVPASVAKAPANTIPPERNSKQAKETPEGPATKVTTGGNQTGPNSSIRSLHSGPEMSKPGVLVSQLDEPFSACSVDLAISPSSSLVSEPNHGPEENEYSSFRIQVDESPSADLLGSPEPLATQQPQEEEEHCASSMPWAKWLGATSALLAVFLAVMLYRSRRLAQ

With “Coxsackievirus B3 (CVB3) 3C^pro protease”, the “MAVS cleavage in CVB3-infected MEFs (immunoblotting), 3 h post-infection” value was “the CVB3 3C^pro protease had produced only a small amount of cleaved MAVS” and the “MAVS cleavage in CVB3-infected MEFs (immunoblotting), 24 h post-infection” value is reported as “CVB3 3C^pro had significantly cleaved MAVS”.
